The results in this text go back to the DeepSol protein solubility set.

The series in a line: soluble on expression in E. coli; label from the status in PepcDB or PDB records.
As for “QGKPREAAQHLEAEASRASGAQRNQLLADAAFAWHEAGDTARAQVLVRQVSVQQLTGESKARFVLLLGELALANRQPVRAFQYFGESSSGLSKKLQIRWLLGRAAALEANGDAFGAAQQRARADQALLGKARNENQAAITRLLAGLDHEVLLTRTAALPVGDPLYHFVGRVLLSRGEALPQPLEGSVQGSVGSSQRPSADTDGYRPPLKLAVLLPLTGSLATAAAPVRDGFLAGYYAETRRRPDLDFFDTGSTPVGAKAAYAKAIAAGADFVVGPLGRDEVSALFSQGQLSIPLLALNRSTGDRVSLPSGSASFSLAPEDDGVIAADYLLAQGQRNVIVIGSNDDVGRRGVQAFMDRFRARGGQVLAALGVADVPGDLGPRLRGADRADAVFLAVRGPTARVLAPQLASLGLSSKPQVGTSQLVLGTGKPEEDTLLDGIVYPTEPWSVQGVKSIPSAADVAVRLPNMRGAALRLFAFGVDAWKLSVYLEGLSAGGAGGGLRGATGTLRLDDSGNVIRIPIWATFRNGQSIPVEML”, the “soluble on expression in E. coli” value was “not soluble”.
In the case of “MGSDKIHHHHHHMNIRLYSDLHIEFEDFHAPADGADVVVLAGDVDVGVRGIDWIVRQEFSCPVIYVMGNHEYYNHRYPSLLGKVKQHAAGKNIHILENESVEIDGVRFHGATLWADFKLFGDPRVAGYECQQVMRDYKKIRKEPSYSKLRSIDVASIHNQSLSWLAESLASSKSSVNVVVTHHAPSMLSVPAYYQDNLVTAAYASDLSAFIDEHKPDYWLHGHLHTSSNYYLGACQVLANPKGYKGEVNESFDPSFSLTLAKRGV” it was “not soluble”; in that of “MNENKLRRLIKKNEYEKLDFKLKIELFTESVKKELAKDICAIANSRGGRGYIIIGVEDKTKKIVGVDADYITEERVQQIVASRIEPPVPISLEECFLDGKRLLVIVIFNSYQKPYQIRENGAFYIRRGSTTDIMRKQELLSEFQKGISFNLETCPIVNSNIDFLNEELVRRYFYLKGIKISKENREFLLSSSNIIHKNNISGKSMCTLGGLLVFSDVNSIYIPHNMIKIRNLLGGEQTFIIRGNILDMMKSMEKKLREIVPNEYPVALIIDTIRNILIYRDYSQYNKIVEVVLGKKELTVYCPGEIVKRYRDGRIGYIKRNMWIYEKIISLDSRDGEMNYNLGGKEVKESFTNKVKVITVNEENITKFIFNKYRTIGLEHHHHHH”, “soluble”.
On to “MGSDKIHHHHHHMSDKHYDALPKAHTTYANIVKSLLPIGNNGKISRDELPQATYFVDDLHIDQNNLNDYRKICGFADNGNVPITYFSVLSQALQMNMMVKEPFPFAMLGLVHVDNSVTQYRAIGEIETVAMSVMFDNLRDHAQGQQFDFVTTVKSADEIIWEGTSTYLSRSKKPATSKDKKSTPRPVTVKPSINKEGVHSIFEVPEDIGRRYAFVSGDFNLIHLHPLSARAFGFPKAIAHGMWSKAKCLAMMGELPDACTVEVSFKLPIFLPSEVELITDPLAQLSSTEDTCQFGLFSAKNDKPHLAGVIALRDENK”, for which the “soluble on expression in E. coli” value was “not soluble”.
With “MAKNKTVFSCTECGGQSPKWQGQCPHCSAWNTLVEAVAAPAAASPRFQSWAANVTKVQKLSEVQTEETPRDPSGIDELDRVLGGGIVRGAVVLIGGDPGIGKSTLLLQALSQIGRSRKVLYVSGEESAQQIALRASRLALDTSSVDLLAEICIENILETLKREQPEVVVIDSIQTLYTEQVTSAPGSVSQVRECAAQLTRMAKQSGITVLLVGHVTKEGSLAGPRVLEHMVDTVLYFEGDSHSSYRMIRAIKNRFGAVNELGVFAMTDRGLKGVSNPSAIFLSSYRDDVAGSCVLVTQEGTRPLLVEIQALVDDCHGFQPKRLTVGLEQNRLSMLLAVLHRHGGVACFDQDVFLNAVGGVKINEPAADLAIILAMVSSLRNKALPEKLVVFGEVGLAGEVRPVTRGQERLKEAAKLGFTRAIVPTANKPRQEIEGLKVLAVDRLDQAVEYCRE”, the “soluble on expression in E. coli” value was “not soluble”.
The result for “MSLDRPRCCLRGKECCINRFQQVESRWGYSGTSDRIRFTVNRRISIVGFGLYGSIHGPTDYQVNMQIIEYEKKQTLGQNDTGFSCDGTANTFRVMFKEPIEILPNVCYTACATLKGPDSHYGTKGLKKVVHETPAASKTVFFFFSSPGNNNGTSIEDGQIPEIIFYTEGHHHHHH” reads “soluble”.
For “MAKMRISPELKKLIEKYRSVKDTEGMSPAKVYKLVGENENLYLKMTDSRYKGTTYDVEREKDMMLWLEGKLPVPKVLHFERHDGWSNLLMSEADGVLCSEEYEDEQSPEKIIELYAECIRLFHSIDISDCPYTNSLDSRLAELDYLLNNDLADVDSENWEEDTPFKDPRELYDFLKTEKPEEELVFSHGDLGDSNIFVKDGKVSGFIDLGRSGRADKWYDIAFCVRSIREDIGEEQYVELFFDLLGIKPDWEKIKYYILLDELF”, the “soluble on expression in E. coli” value was “soluble”.
The result for “MKERKFINEAVKRLLVCEYVVKETENAGFGNMVMKRTPFGTNITLYVNRPGLVIGRRGSKVQQMTDTLEKKYGIETPQIEVKDVKDPDLNPSVIAKKIALSLEKGWSYRKAGNTSLNRTIQAGAKGVLIKISGKISGERARYQKFIYGNVKYSGEPGSKGMITGFSTAKLKVGILGVTVKILNPEYKLPDVFSIENITGGEEVGTESKADQTDVEGRETGNAEES” reads “not soluble”; that for “MHHHHHHGKPIPNPLLGLDSTENLYFQGIDPFTKAYAFGFPKIGEKREFKKALEDFWKGKITEEQFEEEMNKLRMYMVENYRKNVDVIPSNELSYYDFVLDTAVMVGAVPERFGEYRGLSTYFDMARGGKALEMTKFFNTNYHYLVPEIETEEFYLLENKPLEDYLFFKSKGIETAPWVIGPFTFLYLSKRNGEWIRRPNQMEKLLESLVSVYKEVFEKLVENGCKEILVNEPAFVCDLEKAHWDLILNVYRELSEFPLTVFTYYDSVSDYEACVSLPVKRLHFDFVSNEENLKNLEKHGFPEDKKLVAGVINGRQPWKVDLRKVASLVEKLGASAISNSCPLFHLPVTLELENNLPGGLKEKLAFAKEKLEELKMLKDFLEGKTFDLPNVSFEDFAVDLQAVERVRNLPEDSFRREKEYTERDRIQRERLNLPLFPTTTIGSFPQTPEVRKMRSKYRKGEISKEEYEAFIKEQIKKAIELQEEIGLDVLVHGEFERTDMVEFFAEKLNGIATTQNGWVLSYGSRCYRPPIIYGTVTRPEPMTLKEITYAQSLTEKPVKGMLTGPVTIMSWSYYREDIPEREIAYQIALAINEEVKDLEEAGIKIVQIDEPAFREKAPIKKSKWPEYFEWAINAFNLAANARPETQIHAHMCYSDFNEIIEYIHQLEFDVISIEASRSKGEIISAFENFKGWIKQIGVGVWDIHSPAVPSINEMREIVERVLRVLPKELIWINPDCGLKTRNWDEVIPSLRNMVALAKEMREKFES”, “soluble”; that for “MADFAARLNKLFDTVHPPGRKPHTNAEVAAALIADGHQISKPYISQLRSGQRTNPSDETVAAFARFFKVKPDYFFNDIYAAKIDHDLELLSQLQGYGLRKLSSRAFDLSEESQNLLTTMAEKLRASEGLPEVPPDASR”, “not soluble”.
The result for “MSLLRFSAVSRHHRGASIDPMTFSEATTPDALTPDAHTPRLLTCDVLYTGMGGAQSPGGVVVVGETVAAAGHPDELRRQYPHAAEERAGAVIAPPPVNAHTHLDMSAYEFQALPYFQWIPEVVIRGRHLRGVAAAQAGADTLTRLGAGGVGDIVWAPEVMDALLAREDLSGTLYFEVLNPFPDKADEVFAAARTHLERWRRLERPGLRLGLSPHTPFTVSHRLMRLLSDYAAGEGLPLQIHVAEHPTELEMFRTGGGPLWDNRMPALYPHTLAEVIGREPGPDLTPVRYLDELGVLAARPTLVHMVNVTPDDIARVARAGCAVVTCPRSNHHLECGTFDWPAFAAAGVEVALGTDSVASGETLNVREEVTFARQLYPGLDPRVLVRAAVKGGQRVVGGRTPFLRRGETWQEGFRWELSRDLEGHHHHHH” reads “soluble”; that for “MSFVHQKCRNIDTVYLGSNIHRLNVPDNLVKWSQEWSGYNPPAHTDPKVDGAVWADPEIDEKTFQPSWNAIDGKINRVSYVCQYSFDPVTLRPLNPIGRTGLSGRGLLGRWGPNHAADPIVSRTNDNGDLEFVAVQRHDNGEWAIPGGMVDAGEHVSQTLRREFAEEAMHGIVDSENLDELWNNGKELYRGYVDDPRNTDNAWMETVVFNFHDSKGLLKNVALQAGDDAKALRWIAVNSNEPLYASHSHFIDLLKESHSH”, “not soluble”.
In the case of “MEISTLPIYHTKTKMFGYYAYKSFSFLPEWKIDVTRDFDVTIGPKFSANLVFGVNNRNRSDYTQFVIDKDEIIVSASVGEEVDFNYRLRDNLKAYIGLEAQVGIGERIYTKSGLYDTGKKIEGSSENAFKPYTPYIIFNNTHIMYSGKVSAGLKIRDKYNIALYGGYGKGYFGIEFGQTF” it was “not soluble”; in that of “MGSDKIHHHHHHMNEQWFLLGDIHGSAQPVHYFYQKNKERLSLDSSENFMILLGDVGANFALTGQRDHKFKSELSKLPFTFICLRGNHEARVKTVMDKNPDGWETISKYDGSIFVEKEFPYIEYLADGPAVYNFKSYKTLSLPGAYSVDKYYRQARHLTWYKDEQLNEKEMELGRKLCRNEAPFDLVLSHTCPYLYEPTDLFLAGLDQSTVDSTMERYLGEIEFNLDYKRWAFGHFHADRLYPWADGRQMLMLFNENVVNLDKFMNMTEKQSFKDIIA”, “not soluble”.
Regarding “MIEINDVNKKYQQTTVLNEINERIPSGGITSIIGPNGAGKSTLLSIMSRLLAADSGNVLFNGLDVAKTSGDKLATILSVLRQENHFTSRLTVSDLVGFGRYPYSRGRLNKNDRQHIDAAMEFLNLMPLKDRYLDELSGGQRQRAYVAMVLCQDTSYILLDEPLNNLDMKHCVAMMKQLRRAADELHKTIILVIHDINFASAYSDHIIAMKNGEVIYRGAPAEIMQPSILEEIFDIKISIEKVQGQHIAVYYR”, the “soluble on expression in E. coli” value is “not soluble”.
The result for “MWKFATRLGLESVDTIAATNPREAIAAVAAGQADYACVAIENSVDGPVTPTFDALATIDGVRIFHELDLPIAFAIMQRTGAPLRRFATHPVAYQQVKTWLAANAPAAEFVPASSNAEAARMAKENIVDFAAAPARAAEVYGLDIIADGVADVTGARTRFVLVGHADT” reads “not soluble”; that for “SSSLHKSRIADFQDVLKEPSIALEKLRELSFSGIPCEGGLRCLCWKILLNYLPLERASWTSILAKQRELYAQFLREMIIQPGIAKANMGVSREDVTFEDHPLNPNPDSRWNTYFKDNEVLLQIDKDVRRLCPDISFFQRATDYPCLLILDPQNEFETLRKRVEQTTLKSQTVARNRSGVTNMSSPHKNSAPSSLNEYEVLPNGCEAHWEVVERILFIYAKLNPGIAYVQGMNEIVGPLYYTFATDPNSEWKEHAEADTFFCFTNLMAEIRDNFIKSLDDSQCGITYKMEKVYSTLKDKDVELYLKLQEQNIKPQFFAFRWLTLLLSQEFLLPDVIRIWDSLFADDNRFDFLLLVCCAMLMLIREQLLEGDFTVNMRLLQDYPITDVCQILQKAKELQDSK”, “soluble”.
As for “NPVSKRSRGKGMLGGAKRAARTHRASGTAVEELVFPYEHPVPQVGTLTSVELTIPLMRDGVVVEGLPTLEESRAYLAQQLVTIPWEGLALSRDEPVLATRHVGFDQ”, the “soluble on expression in E. coli” value is on record as “not soluble”.
In the case of “MGSDKIHHHHHHMSQHETPLYTGLKKHASRQPVQFHIPGHKKGAGMDPEFRQFIGENALSIDLINIEPLDDLHAPKGIIKQAQDLAAEAFGADHTFFSVQGTSGAIMTMVMAVCGPGDKIIIPRNVHKSIMTAIVFSGAVPIFIHPEIDNELGISHGITLESAKRALTEHPDAKGLLVINPTYFGVAADLKSIVELAHSFDVPVLVDEAHGVHIHFHDELPLSAMQAGADIAATSVHKLGGSLTQSSILNMREGLVSKDRVQSILSMLTTTSTSYLLLASLDVARKRLATEGRQLAEETLKLANQTRDRLNQIEGIYCVGSEILGSKAAYSYDPTKLIISVKSLGLTGHDVEKWLRESFNIEVELSDLYNILCIFTPGDSQNDADRLVEALTEIAQQMSEQDVTHQQTEVLLPEIPLLAMTPRDAFYANTEVIPLKEASGRIIAEFVMVYPPGIPIFIPGEIITEENISYIFKNLDAGLPVQGPEDSTLHMIRVIKEQKAIQ” it was “not soluble”.
